Results published in paper PMC4357722, “A novel endonuclease that may be responsible for damaged DNA base repair in Pyrococcus furiosus”.

Molecular target: T1, PfuEndoQ (PF1551) (Pyrococcus furiosus, UniProt Q8U0N5 1-424)
T1 sequence: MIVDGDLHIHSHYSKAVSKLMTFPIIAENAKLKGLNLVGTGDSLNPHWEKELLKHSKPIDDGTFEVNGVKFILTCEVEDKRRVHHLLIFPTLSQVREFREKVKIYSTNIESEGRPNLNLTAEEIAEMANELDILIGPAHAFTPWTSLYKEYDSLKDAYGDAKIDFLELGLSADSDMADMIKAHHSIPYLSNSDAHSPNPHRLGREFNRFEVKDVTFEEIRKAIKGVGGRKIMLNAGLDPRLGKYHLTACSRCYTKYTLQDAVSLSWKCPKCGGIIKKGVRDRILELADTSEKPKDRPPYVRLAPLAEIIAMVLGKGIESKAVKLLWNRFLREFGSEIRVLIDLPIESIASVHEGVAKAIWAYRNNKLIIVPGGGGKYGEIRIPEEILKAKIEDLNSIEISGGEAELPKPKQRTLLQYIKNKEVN
Experiment: EMSA; 1 mM Mg2+; 60 C; EMSA: 50 mM Tris-HCl pH 8.0, 1 mM MgCl2, 1 mM DTT, 0.01% Tween 20, 60 C 10 min, 5 nM DNA, 0-50 nM protein; 4% PAGE in TBE
Conditions: protein: recombinant; tags: none (untagged; native stop codon in the reverse primer, pET21d); blunt

B1: 45N dsDNA (normal duplex) (dsDNA)
DNA 1: CGAACTGCCTGGAATCCTGACGACATGTAGCGAACGATCACCTCA
DNA 2: TGAGGTGATCGTTCGCTACATGTCGTCAGGATTCCAGGCAGTTCG
B1: no binding.
